# Reference: the DeepSol protein solubility set
# Assay: soluble on expression in E. coli; label from the status in PepcDB or PDB records
row,Sequence,soluble on expression in E. coli
1,VADRLIVKGAREHNLRSVDLDLPRDALIVFTGLSGSGKSSLAFDTIFAEGQRRYVESLSAYARQFLGQMDKPDVDFIEGLSPAVSIDQKSTNRNPRSTVGTITEVYDYLRLLYARAGTPHCPTCGERVARQTPQQIVDQVLAMPEGTRFLVLAPVVRTRKGEFADLFDKLNAQGYSRVRVDGVVHPLTDPPKLKKQEKHDIEVVVDRLTVKAAAKRRLTDSVETALNLADGIVVLEFVDHELGAPHREQRFSEKLACPNGHALAVDDLEPRSFSFNSPYGACPECSGLGIRKEVDPELVVPDPDRTLAQGAVAPWSNGHTAEYFTRMMAGLGEALGFDVDTPWRKLPAKARKAILEGADEQVHVRYRNRYGRTRSYYADFEGVLAFLQRKMSQTESEQMKERYEGFMRDVPCPVCAGTRLKPEILAVTLAGESKGEHGAKSIAEVCELSIADCADFLNALTLGPREQAIAGQVLKEIRSRLGFLLDVGLEYLSLSRAAATLSGGEAQRIRLATQIGSGLVGVLYVLDEPSIGLHQRDNRRLIETLTRLRDLGNTLIVVEHDEDTIEHADWIVDIGPGAGEHGGRIVHSGPYDELLRNKDSITGAYLSGRESIEIPAIRRSVDPRRQLTVVGAREHNLRGIDVSFPLGVLTSVTGVSGSGKSTLVNDILAAVLANRLNGARQVPGRHTRVTGLDYLDKLVRVDQSPIGRTPRSNPATYTGVFDKIRTLFAATTEAKVRGYQPGRFSFNVKGGRCEACTGDGTIKIEMNFLPDVYVPCEVCQGARYNRETLEVHYKGKTVSEVLDMSIEEAAEFFEPIAGVHRYLRTLVDVGLGYVRLGQPAPTLSGGEAQRVKLASELQKRSTGRTVYILDEPTTGLHFDDIRKLLNVINGLVDKGNTVIVIEHNLDVIKTSDWIIDLGPEGGAGGGTVVAQGTPEDVAAVPASYTGKFLAEVVGGGASAATSRSNRRRNVSA,not soluble
2,MSSIDIVIPNYNYGRFLKGCVESVLGQNIADMRILIIDNASTDDSVAISRSLAAANPRIETSLRARNLGGHASFNAGIDWARADYFAIICADDVLSPGALARAMEALDNNPGAHMAFGRTAFFRDDAEIASGLHSDADGMRLHRGMDFIANICATGRSPVQGPLAVTRTHIQQHAGHYRPALRHTDDVEMWMRLAVLGDIVELDAVQNFTRIHGANQSAILDNVLAWNAEIEAALESFFGNEGALLADAKTLLRRGRASLSDRAYWCALSNLVRRRPGAGALLAQAFRLRPASALLPPISYLMRRPDALHRIRAAIARRLEHHHHHH,not soluble
3,MRVSLFLQKQIIECSKAFQPHSTRLQWPKSQDKVFVAMSGGVDSSFSAYLLKSQGYNVEGVFMRNWLDEDSAPSGCPAERDWATVQKVCKKLNISCRRFNFEKEYWNLVFEPSLDLYENGLTPNPDVSCNRQVKFGALFDALKKHCENNVKGDWWLASGHYAKSVVNIETNESHMCIPTDKRKDQTLFLCTIRKEALEKTIFPLHNWTKENVKKQASSAGFKEIAEKQESQGLCFVSPNVGRKFRKFLQRYLNFSDRPIKVIAGKNVVGEFSGNHGIWSLTVGERCGLSLPQAQSEYFGRWYVWKKDIKNNALYICRGTNNELLMSKCIYLKDWKWCGTKLQNLEKSALSCFVRVRHQQPLQPAKVTWRNPESVKIHFQDKQRAVTPGQVIAVYVNDVCLGGGMVDTVEPEKDFD,soluble
4,TDPDCDRVGIVVKDSSGEYVVLNGNQVGSLLVRYILESLVEENKLPKNNPTIIKTIVTSELGAKIAKAYNVDCLNTLTGFKFIGEKIKAFEESNDRSFIMGYEESYGYLIGTHARDKDGVVSSLMICEMAAYYSSKGMNLYEALIDTYNKFGY,not soluble
5,MNVWLLGRGELRRRHDDVLQLERAFLTDRTGLHFVNARSSEDLLALAESRRAEQQWPVLDAEWISPVGTDTCDDLVWQNLESTLDGRPDTFYSTAGFEAGNTLSGTGELAPGEAFLAYRFWRPVRVYAVQLRAFQADFHPGRPVYPFQVARVGVGCSLQAGMSLSYGADASAPGTSCNYRCFCTTEQQTLVFDDPMVGVYLVICLKGFPQQQLTDRLHYAAVSGIRVFGEPISSPALENELSCLISRGFILDGRDAARWLDLRSAQEHAAPMHIPEDEVI,not soluble
6,MSLGHIIVTGAGSGLGRALTIGLVERGHQVSMMGRRYQRLQQQELLLGNAVIGIVADLAHHEDVDVAFAAAVEWGGLPELVLHCAGTGEFGPVGVYTAEQIRRVMESNLVSTILVAQQTVRLIGERGGVLANVLSSAAQVGKANESLYCASKWGMRGFLESLRAELKDSPLRLVNLYPSGIRSEFWDNTDHVDPSGFMTPEDAAAYMLDALEARSSCHVTDLFIGRNEGHHHHHH,soluble
7,GSADETLCQTKVLLDIFTGVRLYLPPSTPDFSRLRRYFVAFDGDLVQEFDMTSATHVLGSRDKNPAAQQVSPEWIWACIRKRRLVAPC,soluble
8,MIANHVSLLIMGIDENQERQKEYNGAFHTDALLLATFNKDDKTVKLTSIPRDTYTYVPVEKKTDNITHAYGSGIVNNGKDGGPQASVEAVEQLLQVPVDYFVKFNFGSFTKIVDGLDGIEVDVPVEFTEQNSKDEPDAIHLKKGLQKLNGEEALALARTRHIDSDAMRGQRQQLVIESILSKLKSVGSITKLEKIVEAVDDDFKTNLVMDDILSFYKYGLNGSVEKIQLAGDDLYLPNGPNGQRVYYYNPNKKDLQSLSNTLRTHLGLSEKQIEENLEHHHHHH,soluble
9,RVQLLESGAELMKPGASVQISCKATGYTFSEYWIEWVKERPGHGLEWIGEILPGSGRTNYREKFKGKATFTADTSSNTAYMQLSSLTSEDSAVYYCTRGYSSMDYWGQGTSVTVSAAKTTPPSVYPLAPGCGDTTGSSVTLGCLVKGYFPESVTVTWNSGSLSSSVHTFPALLQSGLYTMSSSVTVPSSTWPSQTVTCSVAHPASSTTVDKKLEPSGPI,soluble
10,MVSKELVVCHLYGNLLNTYGDNGNLLMLKYLTEKMGVTFRSEIISIYEPFDPEKYDLVFVGGGQDFEQLIISEDIQNKKEALTSYIENDGVLLAICGGYQLLGHYYVGAQGEKIKGIGALDHYTLSQDNNRFIGDIEIYNEEFDETYYGFENHNGMTFLGEGERPLGTVKQGKGNNGQDNGEGVVYKNVFGSYFHGPILARNKNLGIRLIRTALEKKYGEPIAIPETLYK,not soluble
11,MGSDKIHHHHHHMQFTDAVTVAGTRRTADGYLVATARAVRTGIQLYAGHEVGKPDQEVVRVYRAADQVFSTESLQSFSHAPITVDHPDEEVSAENWKALSVGEVSTAAKQDGQWVMLPLILKDAAAIKSVMDGKRELSAGYTCDLDFTPGVTADGEPYDAQQRGIRINHLALVDRARAGSKARIGDDGGPWGAAPISTTDKETITMSDALRTVVVDGLSVTTTDQGAQAISKLLKDLESSAAKLVDAQTRYQAALAAKDADLAKAHAERDAANAKVLSDADLDKRVAARADLITKAKAIAKDVKTDGLSDSAIRKAAVTAALGDAAVRDKADAYIDARFDILVEDAAKKSGGADPFRQVVQNGLQTADNTNGAAAAHNAMVRDMSSAWMMKKEA,not soluble
12,MGNTSSERSGGEKTHRRESRSGKDGTRPKILMDSAEDGDLFQSDDAKEFLAWRQDQESDSKTPLEERPTVFRWKGPGKEIYLSGSFNNWATKIPLNKSHNNFVAIIDLPEGEHQYKFYVDGHWTLDPKEPVVTNKSGVVNNVIKVRKTDFEVFDALKTDSEKCADMSDLSSSPPGPYHQDPYSTKSEDKLRSPPILPPHLLQVLLNKDTGISCDPTLLPEPNHVMLNHLYALSIKDGVMVLSATHRYKKKYVTTLLYKPI,not soluble
13,MGSDKIHHHHHHMGEIVLAAKCTHVPTMLMSEQEGPVKGKRQAAIDGHLEIARRARALGADTVVICDTHWVINAGFHINANSRFQGLFTSNEFPQFIQNMPYDYEGNPGLGDAIAKEASARGAYTLAHHLDSLELEYGTLVPMRFMSREHKMKVVSVAAWCTVHDHDESRIVGEAIRAAVEASNSKVLLVASGSLSHKIWPNKDYAANNGTFTISSEFNRQMDLHVLEMWKRGDHATFLKMLGDYARFCCGEGSMHDTAMLYGALGWDSYDKPCEVVTEYFPSSGTGQTNVIFPV,not soluble
14,MGSDKIHHHHHHMSIDTITLQCFLAVAETQSFTKAAQRVGRTQSAISQQIAKLENLIEKPLINRGRELSLTTDGEIFLGYAKRIYELHRESLDRFKAPELQGEIRFGLPEDFASIILSDVLVEFSRLHPRVLLNVECDLTLNLIERFNEGKFDLILIKTTQQQVGSESIYVCTEPVEWIGKKELLPLLDKPGPIPLVLSPTPCVYRGNVIDTLDKNHIDWRLVYSSASYAGKMAAVRAGLGITAIQRSMIPNYLERLDYDFLPILNDVHVSLLKKSGSNKAIESLEFFILQKLKY,not soluble
